Paper PMC11267001, “RhoG facilitates a conformational transition in the guanine nucleotide exchange factor complex DOCK5/ELMO1 to an open state” (The Journal of Biological Chemistry, 2024)

Columns and labels:
[1] = target: C-terminal truncated DOCK5 (DOCK5^ΔC, residues 1-1642) (human, UniProt Q9H7D0 1-1642); experiment: cryo-EM structure; DOCK5^ΔC/ELMO1^FL/Rac1^G15A (0.9 μM) mixed with RhoG^Q61L (15 μM), cross-linked with 1 mM BS3, SEC; 20 mM HEPES-NaOH pH 8.0, 300 mM NaCl, 1 mM TCEP, 0.06% digitonin; settings: both partners purified
[2] = target: human full-length ELMO1 (ELMO1^FL, residues 1-727) (human, UniProt Q92556 1-727); experiment: as above; settings: both partners purified

B1: constitutively active RhoG^Q61L mutant (GTPase domain, residues 1-184) (domain or fragment)
chain: not shown
- binding result [1]: binds
- binding result [2]: binds
